The text below walks through data of article PMC9541529 (The Febs Journal, 2022).

To fix the notation:
B1: PhoA^349–471 (unfolded PhoA protein fragment, residues 349–471) (domain or fragment)
chain: DKQDHAANPCGQIGETVDLDEAVQRALEFAKKEGNTLVIVTADHAHASQIVAPDTKAPGLTQALNTKDGAVMVMSYGNSEEDSQEHTGSQLRIAAYGPHAANVVGLTDQTDLFYTMKAALGLK
B2: Hsp104 N‐terminal domain (NTD), wild type (domain or fragment)
chain: MNDQTQFTERALTILTLAQKLASDHQHPQLQPIHILAAFIETPEDGSVPYLQNLIEKGRYDYDLFKKVVNRNLVRIPQQQPAPAEITPSYALGKVLQDAAKIQKQQKDSFIAQDHILFALFNDSSIQQIFKEAQVDIEAIKQQALELRGNTR
B3: α‐lactalbumin (natural protein)
chain: EQLTKCEVFRELKDLKGYGGVSLPEWVCTTFHTSGYDTQAIVQNNDSTEYGLFQINNKIWCKDDQNPHSSNICNISCDKFLDDDLTDDIMCVKKILDKVGINYWLAHKALCSEKLDQWLCEKL

Test [1] has as its target B2. In words: NMR titration.
The target of the next test is tau 2N4R (human, UniProt P10636-8 1-441). In words: co-sedimentation.
Test [2] concerns the target T1, Sup35 NM prion protein (NM domains) (S. cerevisiae, UniProt P05453 1-253).
T1 sequence: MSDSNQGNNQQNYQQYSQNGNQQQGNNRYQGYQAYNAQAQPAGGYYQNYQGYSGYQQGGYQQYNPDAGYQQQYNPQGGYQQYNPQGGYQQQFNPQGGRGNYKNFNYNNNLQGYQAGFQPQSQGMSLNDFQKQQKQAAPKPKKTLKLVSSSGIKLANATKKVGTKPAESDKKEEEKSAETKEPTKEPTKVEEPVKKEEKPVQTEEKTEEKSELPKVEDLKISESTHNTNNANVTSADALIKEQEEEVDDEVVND
Briefly: NMR titration.

Take B1: the binding result in test [1] is reported as “binds”.

In the case of B2, the binding result (in the test with tau 2N4R; in test [2]) was “binds” each time.

Turning to B3, the binding result in test [1] is “binds”.
